Measured values: paper PMC9482650, “Quantitative fragmentomics allow affinity mapping of interactomes” (Nature Communications, 2022)
Numbering of substitutions follows the chain as printed.

Legend:
Experiment in all cases: holdup assay
Design in all cases: key: below the threshold = too weak to quantify, mostly under pKd 3.1 to 4
SNTB1, Q13884 = target: T1, SNTB1, Q13884
T1 sequence (Q13884 107-205, limits assumed, looked up): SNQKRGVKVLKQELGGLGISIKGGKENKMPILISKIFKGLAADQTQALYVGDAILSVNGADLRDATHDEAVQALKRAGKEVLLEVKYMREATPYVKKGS

LIN7B, Q9HAP6 = target: T2, LIN7B, Q9HAP6
T2 sequence (Q9HAP6 88-185, limits assumed, looked up): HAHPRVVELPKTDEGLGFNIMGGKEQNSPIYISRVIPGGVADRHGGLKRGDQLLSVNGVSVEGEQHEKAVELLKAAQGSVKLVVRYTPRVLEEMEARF

GRIP1_5, Q9Y3R0 = target: T3, GRIP1_5, Q9Y3R0
T3 sequence (Q9Y3R0 568-668, limits assumed, looked up): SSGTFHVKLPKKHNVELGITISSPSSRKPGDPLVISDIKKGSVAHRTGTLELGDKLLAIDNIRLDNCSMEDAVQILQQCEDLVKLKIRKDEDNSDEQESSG

Inadl_1, Q8NI35 = target: Inadl_1, Q8NI35
PDZRN4_1, Q6ZMN7 = target: PDZRN4_1, Q6ZMN7
TJP2_1, Q9UDY2 = target: TJP2_1, Q9UDY2
MAGI1_1, Q96QZ7 = target: MAGI1_1, Q96QZ7
HTRA3, P83110 = target: T4, HTRA3, P83110
T4 sequence (P83110 354-453, limits assumed, looked up): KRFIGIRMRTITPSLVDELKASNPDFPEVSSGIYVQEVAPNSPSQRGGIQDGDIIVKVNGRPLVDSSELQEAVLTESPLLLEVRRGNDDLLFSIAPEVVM

GRID2IP_1, A4D2P6 = target: GRID2IP_1, A4D2P6
LRRC7, Q96NW7 = target: T5, LRRC7, Q96NW7
T5 sequence (Q96NW7 1440-1537, limits assumed, looked up): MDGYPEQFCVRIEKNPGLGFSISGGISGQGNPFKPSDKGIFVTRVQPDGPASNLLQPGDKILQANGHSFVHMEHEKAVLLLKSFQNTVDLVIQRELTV

SNTG1, Q9NSN8 = target: T6, SNTG1, Q9NSN8
T6 sequence (Q9NSN8 52-150, limits assumed, looked up): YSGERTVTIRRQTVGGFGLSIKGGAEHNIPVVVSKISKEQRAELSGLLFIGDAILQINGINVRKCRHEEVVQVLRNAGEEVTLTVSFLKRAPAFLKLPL

ARHGAP21, Q5T5U3 = target: T7, ARHGAP21, Q5T5U3
T7 sequence (Q5T5U3 45-169, limits assumed, looked up): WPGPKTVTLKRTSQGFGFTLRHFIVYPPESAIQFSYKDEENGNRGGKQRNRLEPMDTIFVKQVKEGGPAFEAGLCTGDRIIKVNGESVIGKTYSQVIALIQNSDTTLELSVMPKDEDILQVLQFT

Inadl_9, Q8NI35 = target: Inadl_9, Q8NI35
PICK1, Q9NRD5 = target: PICK1, Q9NRD5
TIAM2, Q8IVF5 = target: T8, TIAM2, Q8IVF5
T8 sequence (Q8IVF5 885-986, limits assumed, looked up): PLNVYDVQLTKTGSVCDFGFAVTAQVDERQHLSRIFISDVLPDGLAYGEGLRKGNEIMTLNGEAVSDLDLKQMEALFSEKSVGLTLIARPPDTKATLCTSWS

CARD11, Q9BXL7 = target: T9, CARD11, Q9BXL7
T9 sequence (Q9BXL7 662-765, limits assumed, looked up): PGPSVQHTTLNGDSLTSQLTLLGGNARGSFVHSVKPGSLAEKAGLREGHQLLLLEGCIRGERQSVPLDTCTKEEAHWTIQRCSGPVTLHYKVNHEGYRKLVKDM

LNX2_3, Q8N448 = target: T10, LNX2_3, Q8N448
T10 sequence (Q8N448 463-564, limits assumed, looked up): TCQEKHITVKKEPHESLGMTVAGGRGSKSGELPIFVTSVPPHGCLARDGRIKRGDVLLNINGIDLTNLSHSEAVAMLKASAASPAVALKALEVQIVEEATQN

AHNAK1, Q09666 = target: AHNAK1, Q09666
MPDZ_5, O75970 = target: T11, MPDZ_5, O75970
T11 sequence (O75970 695-796, limits assumed, looked up): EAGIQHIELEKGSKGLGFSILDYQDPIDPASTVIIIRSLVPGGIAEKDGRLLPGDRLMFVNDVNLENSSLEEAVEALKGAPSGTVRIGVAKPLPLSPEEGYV

LIN7A, O14910 = target: T12, LIN7A, O14910
T12 sequence (O14910 103-200, limits assumed, looked up): T2 sequence (Q9HAP6 88-185, limits assumed, looked up) with A2S, I20V, V35I, D42E, Q65H, Q77K, G78D, R89K

MAGI2_6, Q86UL8 = target: MAGI2_6, Q86UL8
IL16_4, Q14005 = target: IL16_4, Q14005
NHERF3_4, Q5T2W1 = target: T13, NHERF3_4, Q5T2W1
T13 sequence (Q5T2W1 373-468, limits assumed, looked up): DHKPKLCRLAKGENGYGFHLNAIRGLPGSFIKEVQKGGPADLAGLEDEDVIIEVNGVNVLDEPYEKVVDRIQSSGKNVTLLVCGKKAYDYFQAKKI

GRASP, Q7Z6J2 = target: GRASP, Q7Z6J2
[1] = plain residues with an end cap or a label only (N-terminal biotin on a linker: ttds)
[2] = plain residues with an end cap or a label only (N-terminal biotin on a linker: ahx)

Sequence of Inadl_9, Q8NI35 (Q8NI35 1530-1615): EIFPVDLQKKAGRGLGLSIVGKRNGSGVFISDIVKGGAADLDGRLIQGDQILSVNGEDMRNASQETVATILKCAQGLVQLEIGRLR
Sequence of PDZRN4_1, Q6ZMN7 (Q6ZMN7 213-318): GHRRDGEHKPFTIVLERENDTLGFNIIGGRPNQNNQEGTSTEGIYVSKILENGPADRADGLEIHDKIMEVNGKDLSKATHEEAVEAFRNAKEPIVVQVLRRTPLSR
Sequence of MAGI2_6, Q86UL8 (Q86UL8 1141-1229): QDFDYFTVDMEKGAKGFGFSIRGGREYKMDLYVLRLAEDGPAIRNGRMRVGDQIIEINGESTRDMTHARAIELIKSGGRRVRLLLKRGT
Sequence of GRID2IP_1, A4D2P6 (A4D2P6 1-87): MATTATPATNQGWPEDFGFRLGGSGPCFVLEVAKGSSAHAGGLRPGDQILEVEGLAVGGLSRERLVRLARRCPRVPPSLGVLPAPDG
Sequence of TJP2_1, Q9UDY2 (Q9UDY2 24-128): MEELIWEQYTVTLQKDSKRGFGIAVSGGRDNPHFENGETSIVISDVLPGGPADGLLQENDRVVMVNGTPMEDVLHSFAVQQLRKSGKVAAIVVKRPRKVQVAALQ
Sequence of GRASP, Q7Z6J2 (Q7Z6J2 96-193): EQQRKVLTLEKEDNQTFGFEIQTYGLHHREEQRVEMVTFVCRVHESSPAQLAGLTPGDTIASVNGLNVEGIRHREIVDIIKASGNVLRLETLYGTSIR
Sequence of AHNAK1, Q09666 (Q09666 4-100): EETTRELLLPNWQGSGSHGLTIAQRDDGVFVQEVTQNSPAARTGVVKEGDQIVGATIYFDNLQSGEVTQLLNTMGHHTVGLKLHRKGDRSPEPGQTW
Sequence of Inadl_1, Q8NI35 (Q8NI35 113-229): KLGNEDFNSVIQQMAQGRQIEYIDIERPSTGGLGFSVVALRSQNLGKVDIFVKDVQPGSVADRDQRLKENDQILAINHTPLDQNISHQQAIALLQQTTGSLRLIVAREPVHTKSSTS
Sequence of MAGI1_1, Q96QZ7 (Q96QZ7 1-106): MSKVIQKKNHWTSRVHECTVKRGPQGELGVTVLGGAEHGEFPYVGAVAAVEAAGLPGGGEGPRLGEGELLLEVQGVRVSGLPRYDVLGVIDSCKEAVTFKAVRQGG
Sequence of IL16_4, Q14005 (Q14005 1229-1329): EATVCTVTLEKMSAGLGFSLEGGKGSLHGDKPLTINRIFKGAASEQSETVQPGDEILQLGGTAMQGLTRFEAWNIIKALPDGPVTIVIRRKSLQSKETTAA
Sequence of PICK1, Q9NRD5 (Q9NRD5 17-115): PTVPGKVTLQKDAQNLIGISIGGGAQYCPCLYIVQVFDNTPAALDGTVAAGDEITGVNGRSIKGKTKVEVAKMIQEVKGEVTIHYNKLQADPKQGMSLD

Binder: GGPKEEESPV [SLC16A1, P53985]
- pKd (SNTB1, Q13884; [1]): below the threshold
- pKd (LIN7B, Q9HAP6; [1]): below the threshold
- pKd (GRIP1_5, Q9Y3R0; [1]): below the threshold
- pKd (Inadl_1, Q8NI35; [1]): below the threshold
- pKd (PDZRN4_1, Q6ZMN7; [1]): below the threshold
- pKd (TJP2_1, Q9UDY2; [1]): below the threshold
- pKd (MAGI1_1, Q96QZ7; [1]): below the threshold
- pKd (HTRA3, P83110; [1]): below the threshold
- pKd (GRID2IP_1, A4D2P6; [1]): below the threshold
- pKd (LRRC7, Q96NW7; [1]): below the threshold
- pKd (SNTG1, Q9NSN8; [1]): 3.99
- pKd (ARHGAP21, Q5T5U3; [1]): below the threshold
- pKd (Inadl_9, Q8NI35; [1]): below the threshold
- pKd (PICK1, Q9NRD5; [1]): below the threshold
- pKd (TIAM2, Q8IVF5; [1]): below the threshold
- pKd (CARD11, Q9BXL7; [1]): below the threshold
- pKd (LNX2_3, Q8N448; [1]): below the threshold
- pKd (AHNAK1, Q09666; [1]): below the threshold
- pKd (MPDZ_5, O75970; [1]): below the threshold
- pKd (LIN7A, O14910; [1]): below the threshold
- pKd (MAGI2_6, Q86UL8; [1]): below the threshold
- pKd (IL16_4, Q14005; [1]): below the threshold
- pKd (NHERF3_4, Q5T2W1; [1]): below the threshold
- pKd (GRASP, Q7Z6J2; [1]): below the threshold

Binder: QGRWDHETIV [TMEM215, Q68D42]
- pKd (SNTB1, Q13884; [2]): 4.95
- pKd (LIN7B, Q9HAP6; [2]): below the threshold
- pKd (GRIP1_5, Q9Y3R0; [2]): 3.55
- pKd (Inadl_1, Q8NI35; [2]): below the threshold
- pKd (PDZRN4_1, Q6ZMN7; [2]): 3.67
- pKd (TJP2_1, Q9UDY2; [2]): 3.68
- pKd (MAGI1_1, Q96QZ7; [2]): below the threshold
- pKd (HTRA3, P83110; [2]): below the threshold
- pKd (GRID2IP_1, A4D2P6; [2]): below the threshold
- pKd (LRRC7, Q96NW7; [2]): 3.76
- pKd (SNTG1, Q9NSN8; [2]): 4.7
- pKd (ARHGAP21, Q5T5U3; [2]): below the threshold
- pKd (Inadl_9, Q8NI35; [2]): 3.92
- pKd (PICK1, Q9NRD5; [2]): 4.06
- pKd (TIAM2, Q8IVF5; [2]): below the threshold
- pKd (CARD11, Q9BXL7; [2]): below the threshold
- pKd (LNX2_3, Q8N448; [2]): below the threshold
- pKd (AHNAK1, Q09666; [2]): 3.64
- pKd (MPDZ_5, O75970; [2]): below the threshold
- pKd (LIN7A, O14910; [2]): below the threshold
- pKd (MAGI2_6, Q86UL8; [2]): 4.07
- pKd (IL16_4, Q14005; [2]): below the threshold
- pKd (NHERF3_4, Q5T2W1; [2]): 3.52
- pKd (GRASP, Q7Z6J2; [2]): below the threshold
